These results are taken from PMC10461225, “Creation of a Peptide Antagonist of the GFRAL–RET Receptor Complex for the Treatment of GDF15-Induced Malaise” (Journal of Medicinal Chemistry, 2023).

In data set [1] the target is GFRAL ECD (Homo sapiens) (UniProt Q6UXV0). To be noted: cited from earlier work.
Data set [2] relates to Sprague–Dawley rats. The method, then:
In a follow-up experiment, we evaluated responses to the gold standard antiemetic Ondansetron alone or in combination with GRASP to determine whether the combination would enhance the efficacy of the former compound in preventing CINV in rats.
All systemic treatments were delivered by intraperitoneal (IP) injection.
Rats (n = 98, 300–330 g) received IP injections of GRASP (100 nmol/kg), Ondansetron (2 mg/kg), both GRASP and Ondansetron together, or saline control […] before systemic administration of cisplatin. Six hours later, rats received a second injection of GRASP or vehicle control. Food and kaolin intake were measured at 3, 6, and 24 h postinjection.
All data were expressed as means ± SEM.

In data set [3] the target is T1, Recombinant His-tagged human GFRAL (Ser19–Glu351) (human, UniProt Q6UXV0 19-351).
T1 construct: GDNF family receptor alpha-like (GFRAL), human, extracellular domain S19-E351 as defined by UniProt Q6UXV0; also called GFRAL–ECD; GFRAL (S19–E351); source: bought: ACRO Biosystems (GFA-H52H3), expressed in HEK293 cells
T1 sequence (looked up): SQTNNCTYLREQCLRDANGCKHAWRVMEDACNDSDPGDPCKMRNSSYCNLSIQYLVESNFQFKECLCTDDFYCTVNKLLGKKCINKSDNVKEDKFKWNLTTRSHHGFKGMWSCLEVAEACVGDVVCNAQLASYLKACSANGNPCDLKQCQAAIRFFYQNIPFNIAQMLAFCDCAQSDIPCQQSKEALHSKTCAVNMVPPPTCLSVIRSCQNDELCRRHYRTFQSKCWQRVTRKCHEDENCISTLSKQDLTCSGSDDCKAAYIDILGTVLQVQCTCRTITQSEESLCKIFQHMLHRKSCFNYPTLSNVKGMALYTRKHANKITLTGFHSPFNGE
Nature of the data set: SPR; biotin-GRASP immobilised on a streptavidin-coated biotin sensor (Nicoya OpenSPR); GFRAL-ECD (20, 100, 200, 600 nM), GDF15 (1 uM) or RET (0.29 uM) as analyte; HBSS pH 7.4; 1:1 fit with local Bmax (TraceDrawer). The settings on record: both partners purified. On the technique in general: SPR reads the build-up and loss of mass on a sensor chip optically.

In data set [4] the target is T2, Full-length human GFRAL on stably transfected HEK293 cells (human, UniProt Q6UXV0 19-394).
T2 construct: GDNF family receptor alpha-like (GFRAL), human, full-length, overexpressed on HEK293 cells; also called GFRAL–HEK293 cells; GFRAL-expressing HEK293 cells; source: HEK293 cells stably overexpressing human GFRAL, bought: Creative Biogene (CSC-SC006226)
T2 sequence (looked up): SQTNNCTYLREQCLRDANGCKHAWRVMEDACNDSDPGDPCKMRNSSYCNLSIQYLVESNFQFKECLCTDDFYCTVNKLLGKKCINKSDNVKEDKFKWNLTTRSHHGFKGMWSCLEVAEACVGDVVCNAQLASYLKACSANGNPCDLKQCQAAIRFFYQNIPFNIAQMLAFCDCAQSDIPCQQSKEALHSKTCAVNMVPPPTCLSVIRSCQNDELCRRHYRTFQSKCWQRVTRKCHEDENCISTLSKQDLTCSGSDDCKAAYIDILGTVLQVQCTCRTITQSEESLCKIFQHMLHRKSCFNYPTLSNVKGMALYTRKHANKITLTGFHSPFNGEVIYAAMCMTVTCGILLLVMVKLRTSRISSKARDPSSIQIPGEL
Briefly: flow cytometry on cells; GRASPCy5 (0.1-1000 nM) in HBSS pH 7.4, 30 min at 37 °C, on HEK293 cells stably overexpressing full-length human GFRAL; untransfected HEK293 cells as control. To be noted: one partner purified.

Data set [5] has as its target T1, Recombinant His-tagged human GFRAL …. Briefly: SPR; GFRAL (S19-E351) immobilised by amine coupling (EDC/NHS) on a high-capacity carboxyl sensor (Nicoya OpenSPR); peptides or GDF15 as analyte; HBSS pH 7.4 running buffer without BSA; 20 uL/min. The settings on record: both partners purified.
The mark [6] stands for this setting: GRASP 100 nmol/kg IP BID alone or with Ondansetron 2 mg/kg IP, no cisplatin.
Where [7] appears, read: GRASP 100 nmol/kg IP BID, Ondansetron 2 mg/kg IP, cisplatin 6 mg/kg IP, n = 10–16 per group.

Square brackets hold non-standard residues; d marks the D form. Ends that are not written are not given here. Peptide text beside a SMILES is read from it. PEG2‑C4‑alkyne‑biotin = PEG2-C4-alkyne-modified biotin; Lys(N3) = [N-]=[N+]=NCCCC[C@H](N)C(=O)O; K‑azido = azido-modified lysine

In general, Kd refers to the equilibrium constant for the complex coming apart. In the case of GDF15 (from UniProt Q99988), the Kd in data set [1] was 1 nM. Turning to `CC[C@H](C)[C@H](NC(=O)[C@H](CC(C)C)NC(=O)[C@H](CCC(=O)O)NC(=O)[C@H](CCC(=O)O)NC(=O)[C@H](CCCCN=[N+]=[N-])NC(=O)[C@@H](N)[C@@H](C)O)C(=O)N[C@@H](Cc1c[nH]cn1)C(=O)N[C@@H](C)C(=O)N[C@@H](Cc1c[nH]cn1)C(=O)N[C@@H](C)C(=O)N[C@@H](CC(=O)O)C(=O)N1CCC[C@H]1C(=O)N[C@@H](CCSC)C(=O)N[C@H](C(=O)N[C@@H](CC(C)C)C(=O)N[C@H](C(=O)N[C@@H](CCC(N)=O)C(=O)N[C@@H](CCCCN)C(=O)N[C@H](C(=O)N[C@@H](CC(=O)O)C(=O)N[C@H](C(=O)NCC(=O)N[C@H](C(=O)N[C@@H](CO)C(=O)N[C@@H](CC(C)C)C(=O)N[C@@H](CCC(N)=O)C(=O)N[C@H](C(=O)N[C@@H](Cc1ccc(O)cc1)C(=O)N[C@@H](CC(=O)O)C(N)=O)[C@@H](C)O)C(C)C)[C@@H](C)O)[C@@H](C)O)[C@@H](C)CC)C(C)C` [GRASP] (H-T[Lys(N3)]EELIHAHADPMVLIQKTDTGVSLQTYD-NH2), in data set [2] (setting [6]), the “impact on food or kaolin intake in healthy rats” value was “had no impact on food or kaolin intake in healthy rats” and the “tolerability in healthy rats” value is given as “well-tolerated”. With `Cc1nccn1CC1CCc2c(c3ccccc3n2C)C1=O` (centres unmarked) [Ondansetron], in data set [2] (setting [7]), the “effect on cisplatin-induced anorexia” value is “Neither Ond (2 mg/kg of IP) nor GRASP (100 nmol/kg of IP [BID]) alone had any impact” and the “effect on cisplatin-induced kaolin intake” value is listed as “significantly reduced cisplatin-induced kaolin intake”.

B1: Biotinylated GRASP (peptide)
peptide: T[K‑azido](PEG2‑C4‑alkyne‑biotin)EELIHAHADPMVLIQKTDTGVSLQTYD
notes: GRASP peptide as m1, biotin on the azido-lysine at position 2; Held on the sensor through biotin-streptavidin (His-tagged streptavidin on a biotin sensor); also called biotin-conjugated GRASP; biotin-GRASP; source: synthetic peptide, conjugated to PEG2-C4-alkyne biotin, RP-HPLC purified (95%)
On to B1, for which the Kd in data set [3] amounted to 74.1 nM.

B2: GRASPCy5 (peptide)
peptide: TKEELIHAHADPMVLIQKTDTGVSLQTYD
modifications: not fully specified (residue 2); printed as T(K-azido)EELIHAHADPMVLIQKTDTGVSLQTYD
notes: GRASP peptide as m1, sulfo-Cy5 on the azido-lysine at position 2; also called sulfo-Cy5 GRASP conjugate; GRASP(K2)–fluorophore conjugate; source: synthetic peptide, conjugated to DBCO-Cy5, RP-HPLC purified (95%)
As to B2, the Kd in data set [4] stood at 8.98 nM.

B3: GRASP (K2-azido-modified 29-amino acid peptide) (peptide)
peptide: T[K‑azido]EELIHAHADPMVLIQKTDTGVSLQTYD
notes: designed peptide with GDF15-like loop regions; printed as T(K-azido)[residues removed]; In-house synthesis was on a Rink amide resin, which would give a C-terminal amide; also called GFRAL receptor antagonist; unlabeled GRASP; source: synthetic peptide (Genscript or in-house solid-phase synthesis), HPLC purified to >95%
B3: the equilibrium dissociation constant (Kd) in data set [5] was found to be 179 µM.
